Legend:
Experiment in all cases: holdup assay
Design in all cases: key: below the threshold = too weak to quantify, mostly under pKd 3.1 to 4
SCRIB_1, Q14160 = target: SCRIB_1, Q14160
Inadl_2, Q8NI35 = target: Inadl_2, Q8NI35
TJP3_3, O95049 = target: T1, TJP3_3, O95049
T1 sequence (O95049 375-456, limits assumed, looked up): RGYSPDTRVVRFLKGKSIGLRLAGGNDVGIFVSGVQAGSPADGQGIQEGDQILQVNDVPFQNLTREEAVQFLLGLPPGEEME

MAGI2_4, Q86UL8 = target: MAGI2_4, Q86UL8
SCRIB_2, Q14160 = target: SCRIB_2, Q14160
GRIP1_7, Q9Y3R0 = target: T2, GRIP1_7, Q9Y3R0
T2 sequence (Q9Y3R0 999-1096, limits assumed, looked up): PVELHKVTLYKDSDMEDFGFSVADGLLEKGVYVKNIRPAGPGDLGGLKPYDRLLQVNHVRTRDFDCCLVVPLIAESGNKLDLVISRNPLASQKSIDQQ

TJP2_1, Q9UDY2 = target: TJP2_1, Q9UDY2
GRIP1_3, Q9Y3R0 = target: T3, GRIP1_3, Q9Y3R0
T3 sequence (Q9Y3R0 247-346, limits assumed, looked up): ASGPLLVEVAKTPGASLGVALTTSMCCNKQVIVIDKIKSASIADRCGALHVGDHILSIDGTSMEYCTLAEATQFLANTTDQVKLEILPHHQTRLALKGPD

MAGI2_2, Q86UL8 = target: MAGI2_2, Q86UL8
GRIP2_5, Q9C0E4 = target: GRIP2_5, Q9C0E4
FRMPD4, Q14CM0 = target: FRMPD4, Q14CM0
GRIP2_7, Q9C0E4 = target: GRIP2_7, Q9C0E4
SYNJ2BP, P57105 = target: T4, SYNJ2BP, P57105
T4 sequence (P57105 8-110, limits assumed, looked up): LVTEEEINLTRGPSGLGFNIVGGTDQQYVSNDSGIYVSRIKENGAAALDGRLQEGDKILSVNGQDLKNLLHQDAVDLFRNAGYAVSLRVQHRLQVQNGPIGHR

MPP7, Q5T2T1 = target: T5, MPP7, Q5T2T1
T5 sequence (Q5T2T1 134-230, limits assumed, looked up): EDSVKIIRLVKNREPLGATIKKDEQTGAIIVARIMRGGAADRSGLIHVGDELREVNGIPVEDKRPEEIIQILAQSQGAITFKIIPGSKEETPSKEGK

GORASP2, Q9H8Y8 = target: GORASP2, Q9H8Y8
GRIP2_4, Q9C0E4 = target: GRIP2_4, Q9C0E4
GRIP1_2, Q9Y3R0 = target: T6, GRIP1_2, Q9Y3R0
T6 sequence (Q9Y3R0 145-248, limits assumed, looked up): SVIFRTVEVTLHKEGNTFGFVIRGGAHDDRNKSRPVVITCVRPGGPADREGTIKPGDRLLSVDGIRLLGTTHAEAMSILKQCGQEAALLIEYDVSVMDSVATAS

SNX27, Q96L92 = target: SNX27, Q96L92
GRIP2_6, Q9C0E4 = target: GRIP2_6, Q9C0E4
GRIP1_5, Q9Y3R0 = target: T7, GRIP1_5, Q9Y3R0
T7 sequence (Q9Y3R0 568-668, limits assumed, looked up): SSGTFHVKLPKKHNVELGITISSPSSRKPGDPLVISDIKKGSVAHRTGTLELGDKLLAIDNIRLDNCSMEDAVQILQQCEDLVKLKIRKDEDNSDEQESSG

LAP2, Q96RT1 = target: LAP2, Q96RT1
CASK, O14936 = target: CASK, O14936
DLG5_1, Q8TDM6 = target: DLG5_1, Q8TDM6
GRID2IP_1, A4D2P6 = target: GRID2IP_1, A4D2P6
APBA1_1, Q02410 = target: T8, APBA1_1, Q02410
T8 sequence (Q02410 651-752, limits assumed, looked up): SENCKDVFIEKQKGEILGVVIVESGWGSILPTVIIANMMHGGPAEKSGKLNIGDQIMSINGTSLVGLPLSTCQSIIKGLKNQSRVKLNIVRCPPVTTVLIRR

APBA2_1, Q99767 = target: T9, APBA2_1, Q99767
T9 sequence (Q99767 563-664, limits assumed, looked up): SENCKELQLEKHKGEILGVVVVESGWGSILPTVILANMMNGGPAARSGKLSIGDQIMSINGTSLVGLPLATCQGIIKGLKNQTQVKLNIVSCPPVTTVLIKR

HTRA2, O43464 = target: HTRA2, O43464
PDZRN4_1, Q6ZMN7 = target: PDZRN4_1, Q6ZMN7
[1] = plain residues with an end cap or a label only (N-terminal biotin on a linker: ado-ado)
[2] = modified: phospho on T at position -2 from the C-terminal residue

Chain of GRIP2_4, Q9C0E4 (Q9C0E4 446-548): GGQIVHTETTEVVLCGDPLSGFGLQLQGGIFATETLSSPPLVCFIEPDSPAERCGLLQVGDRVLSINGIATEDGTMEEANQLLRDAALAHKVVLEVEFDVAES
Chain of FRMPD4, Q14CM0 (Q14CM0 67-160): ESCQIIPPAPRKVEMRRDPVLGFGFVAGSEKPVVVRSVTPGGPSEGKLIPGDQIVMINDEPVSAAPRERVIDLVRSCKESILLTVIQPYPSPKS
Chain of LAP2, Q96RT1 (Q96RT1 other isoform, or with tags, fused parts or gaps): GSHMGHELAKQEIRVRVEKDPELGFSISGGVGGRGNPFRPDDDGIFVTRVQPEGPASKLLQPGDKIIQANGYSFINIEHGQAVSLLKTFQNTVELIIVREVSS
Chain of DLG5_1, Q8TDM6 (Q8TDM6 617-713): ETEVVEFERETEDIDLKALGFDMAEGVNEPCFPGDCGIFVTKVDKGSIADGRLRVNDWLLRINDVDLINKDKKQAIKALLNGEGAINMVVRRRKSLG
Chain of PDZRN4_1, Q6ZMN7 (Q6ZMN7 213-318): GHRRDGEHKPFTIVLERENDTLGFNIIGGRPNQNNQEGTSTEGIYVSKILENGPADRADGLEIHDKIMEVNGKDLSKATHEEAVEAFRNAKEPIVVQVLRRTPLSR
Chain of GRIP2_6, Q9C0E4 (Q9C0E4 648-740): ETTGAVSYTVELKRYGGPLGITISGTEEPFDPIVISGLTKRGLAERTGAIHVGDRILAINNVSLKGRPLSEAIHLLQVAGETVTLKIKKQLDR
Chain of HTRA2, O43464 (O43464 355-458): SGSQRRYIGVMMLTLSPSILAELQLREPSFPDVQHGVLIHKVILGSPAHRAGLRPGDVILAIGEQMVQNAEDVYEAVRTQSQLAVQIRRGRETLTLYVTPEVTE
Chain of SCRIB_2, Q14160 (Q14160 857-960): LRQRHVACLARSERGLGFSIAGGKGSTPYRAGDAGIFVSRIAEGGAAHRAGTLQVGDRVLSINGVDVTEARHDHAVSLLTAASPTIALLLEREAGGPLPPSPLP
Chain of Inadl_2, Q8NI35 (Q8NI35 238-335): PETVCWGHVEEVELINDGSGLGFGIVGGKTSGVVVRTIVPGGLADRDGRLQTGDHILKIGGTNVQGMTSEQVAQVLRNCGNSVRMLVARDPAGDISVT
Chain of SCRIB_1, Q14160 (Q14160 718-814): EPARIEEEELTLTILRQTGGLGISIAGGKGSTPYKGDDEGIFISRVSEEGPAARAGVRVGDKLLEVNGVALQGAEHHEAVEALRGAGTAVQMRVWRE
Chain of TJP2_1, Q9UDY2 (Q9UDY2 24-128): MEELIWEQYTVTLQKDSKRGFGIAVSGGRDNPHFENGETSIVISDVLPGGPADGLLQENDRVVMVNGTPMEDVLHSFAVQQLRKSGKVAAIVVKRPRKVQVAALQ
Chain of GRIP2_7, Q9C0E4 (Q9C0E4 934-1023): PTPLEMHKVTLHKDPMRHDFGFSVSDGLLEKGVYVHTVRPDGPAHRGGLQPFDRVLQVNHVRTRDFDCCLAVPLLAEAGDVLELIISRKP
Chain of MAGI2_4, Q86UL8 (Q86UL8 772-865): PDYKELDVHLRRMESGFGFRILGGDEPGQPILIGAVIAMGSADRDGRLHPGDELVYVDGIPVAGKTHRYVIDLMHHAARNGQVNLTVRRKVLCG
Chain of GRID2IP_1, A4D2P6 (A4D2P6 1-87): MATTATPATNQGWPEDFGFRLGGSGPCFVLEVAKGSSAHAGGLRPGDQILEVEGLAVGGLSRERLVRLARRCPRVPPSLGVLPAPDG
Chain of GRIP2_5, Q9C0E4 (Q9C0E4 544-642): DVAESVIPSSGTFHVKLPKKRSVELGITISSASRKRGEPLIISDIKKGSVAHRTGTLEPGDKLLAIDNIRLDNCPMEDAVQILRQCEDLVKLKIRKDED
Chain of MAGI2_2, Q86UL8 (Q86UL8 410-522): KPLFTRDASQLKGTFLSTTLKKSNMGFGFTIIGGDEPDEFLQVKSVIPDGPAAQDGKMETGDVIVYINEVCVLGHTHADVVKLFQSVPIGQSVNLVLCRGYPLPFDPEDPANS
Chain of CASK, O14936 (O14936 487-570): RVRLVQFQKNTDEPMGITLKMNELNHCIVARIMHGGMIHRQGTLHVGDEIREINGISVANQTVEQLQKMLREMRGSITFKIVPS

DYSNLRETDI [ADRA1D, P25100]
pKd (SCRIB_1, Q14160; [1]): 4.95
pKd (Inadl_2, Q8NI35; [1]): below the threshold
pKd (TJP3_3, O95049; [1]): below the threshold
pKd (MAGI2_4, Q86UL8; [1]): below the threshold
pKd (SCRIB_2, Q14160; [1]): 4.73
pKd (GRIP1_7, Q9Y3R0; [1]): below the threshold
pKd (TJP2_1, Q9UDY2; [1]): below the threshold
pKd (GRIP1_3, Q9Y3R0; [1]): below the threshold
pKd (MAGI2_2, Q86UL8; [1]): below the threshold
pKd (GRIP2_5, Q9C0E4; [1]): below the threshold
pKd (FRMPD4, Q14CM0; [1]): below the threshold
pKd (GRIP2_7, Q9C0E4; [1]): below the threshold
pKd (SYNJ2BP, P57105; [1]): 4.43
pKd (MPP7, Q5T2T1; [1]): below the threshold
pKd (GORASP2, Q9H8Y8; [1]): below the threshold
pKd (GRIP2_4, Q9C0E4; [1]): below the threshold
pKd (GRIP1_2, Q9Y3R0; [1]): below the threshold
pKd (SNX27, Q96L92; [1]): 4.21
pKd (GRIP2_6, Q9C0E4; [1]): below the threshold
pKd (GRIP1_5, Q9Y3R0; [1]): below the threshold
pKd (LAP2, Q96RT1; [1]): 3.84
pKd (CASK, O14936; [1]): below the threshold
pKd (DLG5_1, Q8TDM6; [1]): 3.5
pKd (GRID2IP_1, A4D2P6; [1]): below the threshold
pKd (APBA1_1, Q02410; [1]): below the threshold
pKd (APBA2_1, Q99767; [1]): below the threshold
pKd (HTRA2, O43464; [1]): below the threshold
pKd (PDZRN4_1, Q6ZMN7; [1]): below the threshold

SAGADSETHC [SLCO1B1, Q9Y6L6]
pKd (SCRIB_1, Q14160; [1]): 3.68
pKd (Inadl_2, Q8NI35; [1]): below the threshold
pKd (TJP3_3, O95049; [1]): below the threshold
pKd (MAGI2_4, Q86UL8; [1]): below the threshold
pKd (SCRIB_2, Q14160; [1]): below the threshold
pKd (GRIP1_7, Q9Y3R0; [1]): below the threshold
pKd (TJP2_1, Q9UDY2; [1]): below the threshold
pKd (GRIP1_3, Q9Y3R0; [1]): below the threshold
pKd (MAGI2_2, Q86UL8; [1]): below the threshold
pKd (GRIP2_5, Q9C0E4; [1]): below the threshold
pKd (FRMPD4, Q14CM0; [1]): below the threshold
pKd (GRIP2_7, Q9C0E4; [1]): below the threshold
pKd (SYNJ2BP, P57105; [1]): below the threshold
pKd (MPP7, Q5T2T1; [1]): below the threshold
pKd (GORASP2, Q9H8Y8; [1]): below the threshold
pKd (GRIP2_4, Q9C0E4; [1]): below the threshold
pKd (GRIP1_2, Q9Y3R0; [1]): below the threshold
pKd (SNX27, Q96L92; [1]): 4.65
pKd (GRIP2_6, Q9C0E4; [1]): below the threshold
pKd (GRIP1_5, Q9Y3R0; [1]): below the threshold
pKd (LAP2, Q96RT1; [1]): below the threshold
pKd (CASK, O14936; [1]): below the threshold
pKd (DLG5_1, Q8TDM6; [1]): below the threshold
pKd (GRID2IP_1, A4D2P6; [1]): below the threshold
pKd (APBA1_1, Q02410; [1]): below the threshold
pKd (APBA2_1, Q99767; [1]): below the threshold
pKd (HTRA2, O43464; [1]): below the threshold
pKd (PDZRN4_1, Q6ZMN7; [1]): below the threshold

SRSRRRETAL [HPV33-E6_-2P, P06427]
pKd (SCRIB_1, Q14160; [2]): below the threshold
pKd (Inadl_2, Q8NI35; [2]): below the threshold
pKd (TJP3_3, O95049; [2]): below the threshold
pKd (MAGI2_4, Q86UL8; [2]): below the threshold
pKd (SCRIB_2, Q14160; [2]): below the threshold
pKd (GRIP1_7, Q9Y3R0; [2]): below the threshold
pKd (TJP2_1, Q9UDY2; [2]): below the threshold
pKd (GRIP1_3, Q9Y3R0; [2]): below the threshold
pKd (MAGI2_2, Q86UL8; [2]): below the threshold
pKd (GRIP2_5, Q9C0E4; [2]): below the threshold
pKd (FRMPD4, Q14CM0; [2]): 3.73
pKd (GRIP2_7, Q9C0E4; [2]): below the threshold
pKd (SYNJ2BP, P57105; [2]): below the threshold
pKd (MPP7, Q5T2T1; [2]): below the threshold
pKd (GORASP2, Q9H8Y8; [2]): below the threshold
pKd (GRIP2_4, Q9C0E4; [2]): below the threshold
pKd (GRIP1_2, Q9Y3R0; [2]): below the threshold
pKd (SNX27, Q96L92; [2]): below the threshold
pKd (GRIP2_6, Q9C0E4; [2]): below the threshold
pKd (GRIP1_5, Q9Y3R0; [2]): below the threshold
pKd (LAP2, Q96RT1; [2]): below the threshold
pKd (CASK, O14936; [2]): below the threshold
pKd (DLG5_1, Q8TDM6; [2]): below the threshold
pKd (GRID2IP_1, A4D2P6; [2]): below the threshold
pKd (APBA1_1, Q02410; [2]): below the threshold
pKd (APBA2_1, Q99767; [2]): below the threshold
pKd (HTRA2, O43464; [2]): below the threshold
pKd (PDZRN4_1, Q6ZMN7; [2]): below the threshold

GVHSNDHSVV [LPAR1, Q92633]
pKd (SCRIB_1, Q14160; [1]): below the threshold
pKd (Inadl_2, Q8NI35; [1]): below the threshold
pKd (TJP3_3, O95049; [1]): below the threshold
pKd (MAGI2_4, Q86UL8; [1]): below the threshold
pKd (SCRIB_2, Q14160; [1]): below the threshold
pKd (GRIP1_7, Q9Y3R0; [1]): below the threshold
pKd (TJP2_1, Q9UDY2; [1]): below the threshold
pKd (GRIP1_3, Q9Y3R0; [1]): below the threshold
pKd (MAGI2_2, Q86UL8; [1]): 3.69
pKd (GRIP2_5, Q9C0E4; [1]): below the threshold
pKd (FRMPD4, Q14CM0; [1]): below the threshold
pKd (GRIP2_7, Q9C0E4; [1]): below the threshold
pKd (SYNJ2BP, P57105; [1]): 3.7
pKd (MPP7, Q5T2T1; [1]): below the threshold
pKd (GORASP2, Q9H8Y8; [1]): 3.61
pKd (GRIP2_4, Q9C0E4; [1]): below the threshold
pKd (GRIP1_2, Q9Y3R0; [1]): below the threshold
pKd (SNX27, Q96L92; [1]): below the threshold
pKd (GRIP2_6, Q9C0E4; [1]): below the threshold
pKd (GRIP1_5, Q9Y3R0; [1]): below the threshold
pKd (LAP2, Q96RT1; [1]): below the threshold
pKd (CASK, O14936; [1]): below the threshold
pKd (DLG5_1, Q8TDM6; [1]): below the threshold
pKd (GRID2IP_1, A4D2P6; [1]): below the threshold
pKd (APBA1_1, Q02410; [1]): below the threshold
pKd (APBA2_1, Q99767; [1]): below the threshold
pKd (HTRA2, O43464; [1]): below the threshold
pKd (PDZRN4_1, Q6ZMN7; [1]): below the threshold
